Source: patent publication US20100260765A1 (AstraZeneca / MedImmune, published 2010)

How the values were obtained:
Test in all cases: cell-based or functional assay
[1] = biological target: T1, KDR (human, UniProt P35968 20-1356)
[2] = biological target: T1, KDR; remark: listed apart in the source
[3] = biological target: T1, KDR; remark: listed apart in the source
[4] = biological target: T1, KDR; remark: listed apart in the source
[5] = biological target: T1, KDR; remark: listed apart in the source

T1 sequence (P35968 20-1356): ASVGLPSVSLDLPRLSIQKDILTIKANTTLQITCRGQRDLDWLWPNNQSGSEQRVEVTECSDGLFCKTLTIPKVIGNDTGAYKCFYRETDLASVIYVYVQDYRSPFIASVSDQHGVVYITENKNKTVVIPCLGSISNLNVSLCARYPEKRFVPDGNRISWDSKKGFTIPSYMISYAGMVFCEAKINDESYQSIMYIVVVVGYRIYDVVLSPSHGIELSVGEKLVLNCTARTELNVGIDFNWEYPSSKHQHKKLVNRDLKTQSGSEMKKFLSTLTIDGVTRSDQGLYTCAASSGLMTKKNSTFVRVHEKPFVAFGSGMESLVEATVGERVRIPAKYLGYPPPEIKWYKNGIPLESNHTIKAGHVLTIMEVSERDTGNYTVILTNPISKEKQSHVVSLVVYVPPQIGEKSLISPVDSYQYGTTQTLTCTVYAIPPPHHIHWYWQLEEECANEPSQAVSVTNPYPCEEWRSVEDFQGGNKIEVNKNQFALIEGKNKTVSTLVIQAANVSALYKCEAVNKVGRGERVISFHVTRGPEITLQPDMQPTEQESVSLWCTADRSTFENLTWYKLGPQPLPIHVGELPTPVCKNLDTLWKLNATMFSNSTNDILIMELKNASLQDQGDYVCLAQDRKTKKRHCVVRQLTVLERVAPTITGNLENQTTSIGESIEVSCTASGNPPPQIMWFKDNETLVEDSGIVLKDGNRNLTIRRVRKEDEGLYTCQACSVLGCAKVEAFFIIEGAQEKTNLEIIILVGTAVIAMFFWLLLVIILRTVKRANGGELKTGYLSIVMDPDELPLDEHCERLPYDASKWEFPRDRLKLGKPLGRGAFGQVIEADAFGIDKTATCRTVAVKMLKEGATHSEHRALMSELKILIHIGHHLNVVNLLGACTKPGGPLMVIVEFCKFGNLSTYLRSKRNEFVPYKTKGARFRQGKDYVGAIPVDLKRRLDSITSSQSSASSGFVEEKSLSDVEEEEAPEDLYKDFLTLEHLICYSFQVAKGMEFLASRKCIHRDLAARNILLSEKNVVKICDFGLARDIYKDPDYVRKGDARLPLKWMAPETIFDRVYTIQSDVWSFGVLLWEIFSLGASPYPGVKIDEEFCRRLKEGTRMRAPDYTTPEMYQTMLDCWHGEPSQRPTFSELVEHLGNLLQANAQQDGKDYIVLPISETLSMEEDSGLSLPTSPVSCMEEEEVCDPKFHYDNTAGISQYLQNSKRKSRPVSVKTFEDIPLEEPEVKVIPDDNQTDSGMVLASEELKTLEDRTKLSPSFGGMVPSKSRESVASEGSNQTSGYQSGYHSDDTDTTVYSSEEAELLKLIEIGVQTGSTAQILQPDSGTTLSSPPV

Activity at 133 nM (% Inhibition), 1-hour Pre-incubation at 4° C., Average [1] [%] | Activity at 133 nM (% Inhibition), 1-hour Pre-incubation at 4° C., N = 1 [1] [%] | Activity at 133 nM (% Inhibition), 1-hour Pre-incubation at 4° C., N = 2 [1] [%] | % of Max VEGF KDR pTyr Activity (at 133 nM antibody concentration), Average [2] [%] | % of Max VEGF KDR pTyr Activity (at 133 nM antibody concentration), N = 1 [2] [%] | % of Max VEGF KDR pTyr Activity (at 133 nM antibody concentration), N = 2 [2] [%] | % Inhibition of VEGF165-mediated 6-keto Prostaglandin F1α release at 133 nM Antibody Concentration, Average [4] [%] | % Inhibition of VEGF165-mediated 6-keto Prostaglandin F1α release at 133 nM Antibody Concentration, N = 1 [4] [%] | % Inhibition of VEGF165-mediated 6-keto Prostaglandin F1α release at 133 nM Antibody Concentration, N = 2 [4] [%] | Activity at 133 nM (% Inhibition), 24-hour Pre-incubation at 37° C., Average [5] [%] | Activity at 133 nM (% Inhibition), 24-hour Pre-incubation at 37° C., N = 1 [5] [%] | Activity at 133 nM (% Inhibition), 24-hour Pre-incubation at 37° C., N = 2 [5] [%] | Binder | Activity at 133 nM Antibody Concentration (% Survival Inhibition), Average [3] [%] | Activity at 133 nM Antibody Concentration (% Survival Inhibition), N = 1 [3] [%] | Activity at 133 nM Antibody Concentration (% Survival Inhibition), N = 2 [3] [%]
79 | 79 | 79 | 9 | 11 | 6 | 76 | 37 | 115 | 57 | 36 | 77 | 32G7 (antibody, V domains shown) VH: EVQLVESGGGLVKPGGSLRLSCAASGFTISSYSMNWVRQAPGKGLEWVSFISSRSNYIYYADSVKGRFTISRDNAKNSLYLQMNSLRAEDTAVYYCSKDDWFEELWGQGTLVTVSS VL: DIQMTQSPSSLSASVGDRVTITCRASQDIRNDLGWYQQKPGKAPKRLIYAASSLQSGVPSRFSGSGSGTEFTLTISSLQPEDFATYYCLQHNSFPWTFGQGTKVEIK | 69 | 70 | 67
87 | 86 | 88 | 7 | 7 | 7 | 95 | 76 | 114 | 85 | 88 | 82 | 33B1 (antibody, V domains shown) VH: EVQLVESGGGLVKPGGSLRLSCAASGFTFSSYTMNWVRQAPGKGLEWVSFIDSRSSYIYYADSVKGRFTISRDNAKNSLYLQMNSLRAEDTAVYYCSKDDWFEELWGQGTLVTVSS VL: DIQMTQSPSSLSASVGDRVTITCRASQGIRNDLGWYQQKPGKAPKRLIYATSSLQSGVPSRFSGSGSGTEFTLTISSLQPEDFATYYCLHHNSFPWTFGQGTKVEIK | 73 | 80 | 66
43 | 35 | 50 | 13 | 17 | 10 | 49 | 12 | 86 | 36 | 25 | 47 | 1G6 (antibody, V domains shown) VH: EVQLLESGGGLVQPGGSLRLSCAASGFTFSSYAMSWVRQAPGKGLEWVSAISGGGGNTYYADSVKGRFTISRDNSKNTLYLQMNSLRAEDTAVYYCSKVATDYWGQGTLVTVSS VL: QPVLTQSSSASASLGSSVKLTCTLSSGHSSYIIAWHQQQPGKAPRYLMKLEGSGSYNKGSGVPDRFSGSSSGADRYLTISNLQFEDEADYYCETWDSYTVVFGGGTKLTVL | 0 | 9 | -10
32 | 30 | 33 | 12 | 15 | 10 | 25 | 8 | 41 | 23 | 19 | 27 | 29A11 (antibody, V domains shown) VH: EVQLLESGGGLVQPGGSLRLSCAASGFTFSNYAMNWVRQAPGKGLEWVSAISGGGGNTYYADSVKGRFTISRDNSKNTLYLQMNRLRAEDTAVYYCAKASGDDWGQGTLVTVSS VL: not shown | -2 | 6 | -10
33 | 29 | 37 | 10 | 11 | 8 | 24 | 15 | 33 | 83 | 69 | 97 | 30E3 (antibody, V domains shown) VH: EVQLLESGGGLVQPGGSLRLSCAASGFTFSNYALSWVRQAPGKGLEWVSAISGSGRNTYYADSVKGRFTLSRDNSKNTLFLQMNSLRAEDTAVYYCAKASGDNWGQGTLVTVSS VL: not shown | -16 | -5 | -27
68 | 64 | 73 | 13 | 15 | 12 | 95 | 72 | 119 | 80 | 75 | 85 | 29D4 (antibody, V domains shown) VH: QLQLQESGPGLVKPSETLSLTCTVSGGSISSRSNYWGWIRQPPGKGLEWIGTIYYSGHTYYNPSLKSRVSISVDTSKNQFSLKLSSVTATDTALYYCARQQLVLYYFEYWGQGTLVTVSS VL: not shown | 85 | 85 | 85
